Assay results published in article PMC8413892.
Like-named read-outs stand apart in the source and are kept apart here.

What was measured:
[1] = biological target: Kir4.1 channel (human) (UniProt P78508)
[2] = biological target: Kir1.1 channel (human) (UniProt P48048)
[3] = biological target: Kir4.1 channel (human) (UniProt P78508); remark: listed apart in the source
[4] = biological target: Kir1.1 channel (human) (UniProt P48048); remark: listed apart in the source

Chain of UniProt P48048 (P48048 whole entry): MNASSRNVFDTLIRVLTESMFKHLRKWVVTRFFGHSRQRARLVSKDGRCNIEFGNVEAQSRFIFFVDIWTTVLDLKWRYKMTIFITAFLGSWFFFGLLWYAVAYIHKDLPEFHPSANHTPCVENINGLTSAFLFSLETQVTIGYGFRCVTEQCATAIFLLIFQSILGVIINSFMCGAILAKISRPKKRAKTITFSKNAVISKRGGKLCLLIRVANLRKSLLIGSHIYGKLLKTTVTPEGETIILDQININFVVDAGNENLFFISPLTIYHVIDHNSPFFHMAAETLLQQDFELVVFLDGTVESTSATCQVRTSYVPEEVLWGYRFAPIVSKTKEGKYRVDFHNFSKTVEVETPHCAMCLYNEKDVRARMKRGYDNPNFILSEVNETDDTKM
Chain of UniProt P78508 (P78508 whole entry): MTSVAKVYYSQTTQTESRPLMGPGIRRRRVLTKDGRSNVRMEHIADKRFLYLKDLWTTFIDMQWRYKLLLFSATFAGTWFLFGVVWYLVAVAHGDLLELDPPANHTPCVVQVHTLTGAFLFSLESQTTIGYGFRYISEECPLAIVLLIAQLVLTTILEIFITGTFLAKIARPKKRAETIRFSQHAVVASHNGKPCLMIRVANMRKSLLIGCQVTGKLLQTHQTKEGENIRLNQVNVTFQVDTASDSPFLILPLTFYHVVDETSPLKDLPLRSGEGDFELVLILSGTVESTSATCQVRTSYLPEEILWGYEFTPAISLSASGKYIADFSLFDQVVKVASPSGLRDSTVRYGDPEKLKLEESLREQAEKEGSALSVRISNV

Q: native SsTx-4 (peptide) was tested. Which IC50 of inhibition of Kir4.1 currents at −40 mV, whole-cell patch clamp, HEK293T [1] did it give?
A: 6200 nM

Q: What about the IC50 of inhibition of Kir1.1 currents at −40 mV, whole-cell patch clamp, HEK293T [2] of the same substance?
A: 210 nM

Q: Which IC50 of inhibition of Kir4.1 currents at −40 mV, whole-cell patch clamp, HEK293T [3] does the source give for recombinant SsTx-4 (peptide) here?
A: 5600 nM

Q: What about the IC50 of inhibition of Kir1.1 currents at −40 mV, whole-cell patch clamp, HEK293T [4] of the same substance?
A: 60.4 nM
